Substitutions are numbered along the chain they refer to. Names may count otherwise. Blank lines part the entries; values can stand above or below the binder they belong to.
Biological target: T1, CD3 epsilon homodimer protein (UniProt P07766 23-126)
T1 construct: construct not described; homodimer as printed; also called CD3 (CD3 epsilon)
Experiment: SPR Biacore T200, CD3 epsilon homodimer immobilized; vs unaltered GLS3000;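 also: antibody variants flowed as analyte over CD3 epsilon homodimer amine-coupled to a CM4 chip, at 25 °C in HBS-EP+ running buffer, fitted with Biacore T200 Evaluation Software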

T1 sequence (P07766 23-126): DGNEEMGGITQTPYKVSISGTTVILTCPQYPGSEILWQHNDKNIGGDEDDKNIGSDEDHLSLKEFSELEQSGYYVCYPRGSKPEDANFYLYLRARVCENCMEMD

B1: GLS3000 H27dF (Kabat) L chain altered form, one-arm antibody with CE115HA000 (antibody, human IgG1, kappa, L234A L235A, N297A, name in Kabat numbering)
heavy: QVQLVESGGGVVQPGRSLRLSCAASGFTFSNAWMHWVRQAPGKGLEWVAQIKAKSNNYATYYAESVKGRFTISRDDSKNSLYLQMNSLKTEDTAVYYCRYVHYGAYYGVDAWGQGTTVTVSSASTKGPSVFPLAPSSKSTSGGTAALGCLVKDYFPEPVTVSWNSGALTSGVHTFPAVLQSSGLYSLSSVVTVPSSSLGTQTYICNVNHKPSNTKVDKKVEPKSCDKTHTCPPCPAPEAAGGPSVFLFPPKPKDTLMISRTPEVTCVVVDVSHEDPEVKFNWYVDGVEVHNAKTKPREEQYASTYRVVSVLTVLHQDWLNGKEYKCKVSNKALPAPIEKTISKAKGQPREPQVYTLPPSRCELTKNQVSLSCAVKGFYPSDIAVEWESNGQPENNYKTTPPVLDSDGSFFLVSKLTVDKSRWQQGNVFSCSVMHEALHNHYTQKSLSLSPDYKDDDDK
chain: EPKSSDKTHTCPPCPAPELLGGPSVFLFPPKPKDTLMISRTPEVTCVVVDVSHEDPEVKFNWYVDGVEVHNAKTKPREEQYNSTYRVVSVLTVLHQDWLNGKEYKCKVSNKALPAPIEKTISKAKGQPREPQVCTLPPSRDELTKNQVSLWCLVKGFYPSDIAVEWESNGQPENNYKTTPPVLDSDGSFFLYSKLTVDKSRWQQGNVFSCSVMHEALHNRYTQKSLSLSP
light: DIVMTQSPLSLPVTPGEPASISCRSSQSLVFSNRNTYLHWYQQKPGQAPRLLIYKVSNRFSGVPDRFSGSGSGTDFTLKISRVEAEDVGVYYCGQGTQVPYTFGQGTKLEIKRTVAAPSVFIFPPSDEQLKSGTASVVCLLNNFYPREAKVQWKVDNALQSGNSQESVTEQDSKDSTYSLSSTLTLSKADYEKHKVYACEVTHQGLSSPVTKSFNRGEC
notes: one-arm antibody
KD ratio to GLS3000 (Affinity up): 2.05

B3: GLS3000 H27dM (Kabat) L chain altered form, one-arm antibody with CE115HA000 (antibody, human IgG1, kappa, L234A L235A, N297A, name in Kabat numbering)
heavy: B1 heavy
chain: B1 chain
light: B1 light with F31M
notes: one-arm antibody
KD ratio to GLS3000 (Affinity up): 3.43

B4: GLS3000 H27dW (Kabat) L chain altered form, one-arm antibody with CE115HA000 (antibody, human IgG1, kappa, L234A L235A, N297A, name in Kabat numbering)
heavy: B1 heavy
chain: B1 chain
light: B1 light with F31W
notes: one-arm antibody
KD ratio to GLS3000 (Affinity up): 1.86

B5: GLS3000 H27dI (Kabat) L chain altered form, one-arm antibody with CE115HA000 (antibody, human IgG1, kappa, L234A L235A, N297A, name in Kabat numbering)
heavy: B1 heavy
chain: B1 chain
light: B1 light with F31I
notes: one-arm antibody
KD ratio to GLS3000 (Affinity up): 7.77

B6: GLS3000 H27dL (Kabat) L chain altered form, one-arm antibody with CE115HA000 (antibody, human IgG1, kappa, L234A L235A, N297A, name in Kabat numbering)
heavy: B1 heavy
chain: B1 chain
light: B1 light with F31L
notes: one-arm antibody
KD ratio to GLS3000 (Affinity up): 3.37

B7: GLS3000 H27dS (Kabat) L chain altered form, one-arm antibody with CE115HA000 (antibody, human IgG1, kappa, L234A L235A, N297A, name in Kabat numbering)
heavy: B1 heavy
chain: B1 chain
light: B1 light with F31S
notes: one-arm antibody
KD ratio to GLS3000 (Affinity up): 3.05

B8: GLS3000 H27dR (Kabat) L chain altered form, one-arm antibody with CE115HA000 (antibody, human IgG1, kappa, L234A L235A, N297A, name in Kabat numbering)
heavy: B1 heavy
chain: B1 chain
light: B1 light with F31R
notes: one-arm antibody
KD ratio to GLS3000 (Affinity up): 2.35

B10: GLS3000 H27dG (Kabat) L chain altered form, one-arm antibody with CE115HA000 (antibody, human IgG1, kappa, L234A L235A, N297A, name in Kabat numbering)
heavy: B1 heavy
chain: B1 chain
light: B1 light with F31G
notes: one-arm antibody
KD ratio to GLS3000 (Affinity up): 3.51

B11: GLS3000 H27dT (Kabat) L chain altered form, one-arm antibody with CE115HA000 (antibody, human IgG1, kappa, L234A L235A, N297A, name in Kabat numbering)
heavy: B1 heavy
chain: B1 chain
light: B1 light with F31T
notes: one-arm antibody
KD ratio to GLS3000 (Affinity up): 13000

B12: GLS3000 H27dN (Kabat) L chain altered form, one-arm antibody with CE115HA000 (antibody, human IgG1, kappa, L234A L235A, N297A, name in Kabat numbering)
heavy: B1 heavy
chain: B1 chain
light: B1 light with F31N
notes: one-arm antibody
KD ratio to GLS3000 (Affinity up): 3.43

B13: GLS3000 H27dK (Kabat) L chain altered form, one-arm antibody with CE115HA000 (antibody, human IgG1, kappa, L234A L235A, N297A, name in Kabat numbering)
heavy: B1 heavy
chain: B1 chain
light: B1 light with F31K
notes: one-arm antibody
KD ratio to GLS3000 (Affinity up): 3.8

B15: GLS3000 H27dV (Kabat) L chain altered form, one-arm antibody with CE115HA000 (antibody, human IgG1, kappa, L234A L235A, N297A, name in Kabat numbering)
heavy: B1 heavy
chain: B1 chain
light: B1 light with F31V
notes: one-arm antibody
KD ratio to GLS3000 (Affinity up): 354

B16: GLS3000 H27dQ (Kabat) L chain altered form, one-arm antibody with CE115HA000 (antibody, human IgG1, kappa, L234A L235A, N297A, name in Kabat numbering)
heavy: B1 heavy
chain: B1 chain
light: B1 light with F31Q
notes: one-arm antibody
KD ratio to GLS3000 (Affinity up): 7.48

B20: GLS3000 H27dP (Kabat) L chain altered form, one-arm antibody with CE115HA000 (antibody, human IgG1, kappa, L234A L235A, N297A, name in Kabat numbering)
heavy: B1 heavy
chain: B1 chain
light: B1 light with F31P
notes: one-arm antibody
KD ratio to GLS3000 (Affinity up): 9.21

B22: GLS3000 H27dY (Kabat) L chain altered form, one-arm antibody with CE115HA000 (antibody, human IgG1, kappa, L234A L235A, N297A, name in Kabat numbering)
heavy: B1 heavy
chain: B1 chain
light: B1 light with F31Y
notes: one-arm antibody
KD ratio to GLS3000 (Affinity up): 1.98

The remaining lines, values ahead:

KD ratio to GLS3000 (Affinity up): 1.18
B2: GLS3000 H34A (Kabat) L chain altered form, one-arm antibody with CE115HA000 (antibody, human IgG1, kappa, L234A L235A, N297A, name in Kabat numbering)
heavy: B1 heavy
chain: B1 chain
light: B1 light with F31H, H39A
notes: one-arm antibody

KD ratio to GLS3000 (Affinity up): 1.31
B9: GLS3000 L27bM (Kabat) L chain altered form, one-arm antibody with CE115HA000 (antibody, human IgG1, kappa, L234A L235A, N297A, name in Kabat numbering)
heavy: B1 heavy
chain: B1 chain
light: B1 light with L29M, F31H
notes: one-arm antibody

KD ratio to GLS3000 (Affinity up): 1.17
B14: GLS3000 L27bI (Kabat) L chain altered form, one-arm antibody with CE115HA000 (antibody, human IgG1, kappa, L234A L235A, N297A, name in Kabat numbering)
heavy: B1 heavy
chain: B1 chain
light: B1 light with L29I, F31H
notes: one-arm antibody

KD ratio to GLS3000 (Affinity up): 2.67
B17: GLS3000 L27bF (Kabat) L chain altered form, one-arm antibody with CE115HA000 (antibody, human IgG1, kappa, L234A L235A, N297A, name in Kabat numbering)
heavy: B1 heavy
chain: B1 chain
light: B1 light with L29F, F31H
notes: one-arm antibody

KD ratio to GLS3000 (Affinity up): 59.5
B18: GLS3000 K50A (Kabat) L chain altered form, one-arm antibody with CE115HA000 (antibody, human IgG1, kappa, L234A L235A, N297A, name in Kabat numbering)
heavy: B1 heavy
chain: B1 chain
light: B1 light with F31H, K55A
notes: one-arm antibody

KD ratio to GLS3000 (Affinity up): 25.1
B19: GLS3000 L27bD (Kabat) L chain altered form, one-arm antibody with CE115HA000 (antibody, human IgG1, kappa, L234A L235A, N297A, name in Kabat numbering)
heavy: B1 heavy
chain: B1 chain
light: B1 light with L29D, F31H
notes: one-arm antibody

KD ratio to GLS3000 (Affinity up): 26.8
B21: GLS3000 L27bE (Kabat) L chain altered form, one-arm antibody with CE115HA000 (antibody, human IgG1, kappa, L234A L235A, N297A, name in Kabat numbering)
heavy: B1 heavy
chain: B1 chain
light: B1 light with L29E, F31H
notes: one-arm antibody

KD ratio to GLS3000 (Affinity up): 0.96
B23: GLS3000 L27bP (Kabat) L chain altered form, one-arm antibody with CE115HA000 (antibody, human IgG1, kappa, L234A L235A, N297A, name in Kabat numbering)
heavy: B1 heavy
chain: B1 chain
light: B1 light with L29P, F31H
notes: one-arm antibody

From US20240270846A1 (published 2024)
